The DeepSol protein solubility set

Assay: soluble on expression in E. coli; label from the status in PepcDB or PDB records

Sequence	soluble on expression in E. coli
MLREFSFYDVPPAHVPPVSEPLEIACYSLSRDRELLLDDSKLSYYYPPPLFSDLNTGFPNRFHPPKSDPDPISIVKDVLMTKGIQMNSSFLTWRGLITKIMCAPLDPRNHWETYLVMDPTSGIIMMEERTRSETSYANQDRMCYWGYKFEAISTLPEIWDACSRDQIEQRDNQDVVPDEQYCSIVKINIGKSKLILAGEVDCIWDKKPCSAKESDVHSDDGTIEEDASNAENPNLHYVELKTSKKYPLENYGMRKKLLKYWAQSFLLGIGRIIIGFRDDNGILIEMKELFTHQIPKMLRPYFKPNDWTPNRLLVVLEHALEWIKQTVKQHPPSTEFTLSYTGGSKLVLRQIILEHHHHHH	soluble
MLREKAMRSWKPIALGVTLALSSQFSWAAVIETTRLVGFGEAKYPENFTHFDYVNPQAPKYGKVTFGELGTYDNFNRFASRGVAAANTAELYDPLMFSPADEIDSYYPLIASKIRYSDDFTWLEIDLNPNARFHDGKPITAQDVEFSFEKFMAEGVPQYRVYYQDVKSVKAIAERTVRIEMKQPNREQLFSLAQSTRVLPKHYWQYKNLAEPLNEPPVGSGAYQIVDFKPGQSVTYKLNPDYWAKDLPVNVGRNNFAQIQYDYYRDDTVMLEAFKAGEFDLREENQAKFWATSYTGRNFDQGLIKKEEIAHQAPASTQGFIFNTQRPVFQDVRVREALNYALDFEWMNKNLFYDQYQRTRSYFQNTEYEAQGLPNAAELAVLTPYKEQLPARVFTETYQPSVTDGSGRIRTQMREAFALLKEAGWELKNKVMTNVKTGEPLSFELLIYSPTTERIAIPLQKNLQLMGIEMKIRTVDTTQYTKRLRDRDFDMISHGFSANPYPSPNLLIVWNSNYMDSSYNSAGANHPVIDALTEQIAKSQQDTEKLRALGSALDRVLQWNFYIIPQWHLSMYRVAMWDKFSRPSVLPKYSLGLDTWWIDQEKAARLPEKRR	not soluble
MLRGGVNDCKIKWEFLIGNSIDSSPILAKNGTIYLGSSNKNLYAINTDGSVKWFFKSGEIIECRPSIGKDGTIYFGSDKVYAINPDGTEKWRFDTKKAIVSDFTIFEDILYVTSMDGHLYAINPDGTEKWRFKTKKAIYATPIVSEDGTIYVGSNDNYLYAINPDGTEKWRFKTNDAITSAASIGKDGTIYFGSDKVYAINPDGTEKWNFYAGYWTVTRPAISEDGTIYVTSLDGHLYAINPDGTEKWRFKTGKRIESSPVIGNTDTIYFGSYDGHLYAINPDGTEKWNFETGSWIIATPVIDENGTIYFGTRNGKFYALFNLEHHHHHH	soluble
MLRNLKKTLVLDSSVFIQGIDIEGYTTPSVVEEIKDRESKIFLESLISAGKVKIAEPSKESIDRIIQVAKETGEVNELSKADIEVLALAYELKGEIFSDDYNVQNIASLLGLRFRTLKRGIKKVIKWRYVCIGCGRKFSTLPPGGVCPDCGSKVKLIPRKRLEHHHHHH	not soluble
MLRRSSRHADQRKNGAQLRAEEEANKVKLRLTAENEKLKSEVEKLKKDHEELSRVTLKVNTEFTIQESHMARLLRENMSLKEQLNDFSFKLRFRDDMSRVEEQVKKEQGVTDGYRRRVNQLTEFHVKSQEEQRGEPFPWRTCEICACKFEGETMDQTPRVLGCGHTMCMGCVQKIVGQGYIKCPFCRIVTKIGTTPLNNLPKNYIVLNM	not soluble
MLSFCPSCNNMLLITSGDSGVYTLACRSCPYEFPIEGIEIYDRKKLPRKEVDDVLGGGWDNVDQTKTQCPNYDTCGGESAYFFQLQIRSADEPMTTFYKCVNCGHRWKEN	not soluble
MLSPDNVFIAIKPVDMRRGIDSLTQYIQDELRSTWHEGAAFVFVNKARSRIKVLRWDKHGVWLCTRRLHKGSFRWPRANDAAWHLTPDEFNWLIAGVDWQQVKGHDLTKWVWQNEPELRPENTQNTLLTQ	not soluble
MLSRFSGKVALVTGSSNGIGRAAAVLFAKDGAKVTVTGRNAERLEETRQEILKSGVPESHVLSVATDLAAEKGQDELVNSTIQKFGRLDILVNNAGAAFNDDQGRVGVDQDVSVYDKIMQINMRSVVTLTQKAKEHLVKAKGEIVNVSSIAGTAHAQPGVMYYAMSKSALDQFTRCAAIDLIQYGVRVNSVSPGGVTTGFGEAMGMPSGAFEEMMKFMESRKECIPSGAVAKPIDIANIIAFLADRKLSSYIIGQSIVADGGSTLVLGMNAHNWADLMKQS	not soluble
MLSTIRYYYEHSLIEEKTKHQELSWQTPISRSLVTHDPSTGGIQLSKKNAMLNDAVTTTTTVEVFRAPTNTDMISLTPASNGGPPLLVRTNGPQYEQWNDRRVQTMMVDDDRRDLAKGVQWKERLIEESDRRYRDNGSDFYDEITEPTQFIHHDYRPKPLGFQTITHPIIMTGSRDDLRSQPPQYPAPLSPLYIVPDRHRNIANSVSPGQYSRRSNGYEDRRKDTEELRDERKRENEQNQNRERYHHRRSKSSNRDDASVSHRSLRHRSMSPASRRSFGTSLGGSQEFVIPAHSPIGSTLMLASPDPNELPGRPASAKSQEIFALYQTRDAYNRIVDQL	not soluble
MLSVRVAIVGGGLAGLYAAALLEARGVTDYVLLEARETFGGRIMSVPVAAEPDAQRDAAERFDLGATWFWPAMQPELLRVVTAFGVEAFEQYETGAMLVERARDQPAMRIDAGASMSGAWRMAGGMGALTDAISRRLDAARLRAGWRVQRLRKVDEGVDVEAEDGVGRARCWRAAQVLLAMPPRLAVRTVAFAPALPDVLALPWAACQTWMAPHAKYLAVYDMPFWREQGLSGGARSAAGPLAEIHDASGQQGGAALFGFLGVPAAARGRMAQADLRAACRAQLVRLFGERARWPRAEFLKDWADDVCTAVDADRCAQGSHAELPPALADAGAWKDRLIGIASEWSPAFGGYAAGAVDAARRGVEALLGSPDAGVPARRHQGRLWEAWRLEHHHHHH	soluble
MLTAATEVLAAADGPGSAESAWAWRDAPIATLVQRIQQLQNERAQAFRRLDQAHRQYLLSGQHYDFPSYRSVVHEVTQAFAAASREVLAVEAELAGPRAQPVLARHVRSLQELEQTRLATVALLQVMGTPGVSEQDPEKLHQLKIKVIKTMEAIGEVLQELRFDAESAE	soluble
MLTKVIEQAKIDHFTKWFERADKIVIVSHVSPDGDAIGSSLGLYHFLDSQEKTVNVIVPNAFPDFLRWMPGSKDILLYDRYKDFADKLIAEADVICCLDFNALKRIDEMADAVAASPARKVMIDHHLYPEEFCKITMSYPKISSTSELIFRLICRMGYFSDISKEGAECIYTGMMTDTGGFTYNSNNREIYFIISELLSKGIDKDDIYRKVYNTYSESRLRLMGYVLSNMVVYSDYNAALISLTKEEQSKFDYIKGDSEGFVNIPLTIKNVCFSCFLREDTEKPMIKISLRSVGTFPCNQLAAEFFNGGGHLNASGGEFFGTIEEAKAVFEQALEKYKPLLTAKSLEHHHHHH	soluble
MLTPRFDIQPAVSVILPTFDRAPLLASAIESVVAQNFAEWELIVVDDGSSDETFEIVDGYLNQHANIRYMKHRNRKAALSRNAGIQAAFGRYITFLDSDDLYLPEHLESRLHLLESMPEVRLISGGFVCEGDPWVRDRDDPEKLIHVSECIAGATMFGRRELFLDIGGFRALDYAEDTDLWERAARSHKVLKIDQPVSYIYRRSPGSITRTYKPAKPLEHHHHHH	soluble
MLTQEQIMNALKHVEDPELHKSVVELNMVRNIQMNGTEVKLEVVLTIQGCPLKAKIQQDIEESLHAIGASKVEVTFGSMTQEERAALTEKLKRNTRTETGMPSMLRPDSGVRFITVTSGKGGVGKSTVTINLATALARMGKKVGILDADIYGFSIPAMMETNKKPTMIDQTAIPVISHGVKIMSMGFFTEGNNPVMWRGPMLNKWIQNFLANTHWGELDYLLLDLPPGTGDVAIDVAAMIPQAKEIIVTTPHNIASFVASRVGVMAKHTKHEILGIVENMAYYEEQDGSKNYLFGKGGGEMLAEQLQTEVIAKIPFAKREENNGSSVYDEDSLVGEVFTSLAEDIIYRGLEHHHHHH	soluble
MLTYETWEENETKGALSVLSWAYKEYKSEIVYACSFGVEGMVLLDLINQVNPSAKVVFLDTNVHFQETYELIQKVRERFPSLNIIEKQPKLTLDEQDKLHGDKLWESNPNLCCKIRKILPLEESLANEKAWISGLRREQSETRKHTKFINQDHRFQSIKVCPLIHWTWKEVWRYVYKHSLPYNSLHDIGYPSIGCEKCTLPVGEGGDSRDGRWAGKVKTECGLHYQ	not soluble
MLVGERLENEPNFYQEIDFLKHLAGINGVPVVHKHFQYEQKRVLVMDKYLENLEQFRKRKEDEKLSPRVVIKLAFRLVSILEHIHRKGVVHQDIKLDNVVFGAKVGNKLDIVLIDYGIAAFTKPKPPRDLVDGALHCTTDFSSSVYASPGLVQGLKGDPVDDLQMLSFMLLWASKYNPFGEDSLESLRKKKEFIAKPSIFTQGDYKFLRPVISKIMEQKRSKRPDYKAISKKCANKDNYFNPDTAVHLGNAYEFF	not soluble
MLVLRLFNTQKARLSQLPKASNEIVKDFISKLANAAGSRDKLSDCFTHDFQFFGCGYTVNKAPFVEKHLATPNPEPLIPKCSSFNGNDSKISFTASHQDGPRENIVDLVISREEKDSPWRLQSGKITNCP	not soluble
MLVVPARLHRWPPEVQDLFGREGPLVLEIGFGDGRFTAELARSRPDWLVLGAEVSAASVLRALRRMRREGLANVRLYHGQGPFALRNLVLPGTLDQVIVNFPDPWPKKRHQERRLLREAFFRRLSTRLKPGGSLLLTTDHEEYFRFALEEAERTGLYRVEVRPPPEAHLRTKYALKWKEAGRAFFHAAFIKLREDPAPWPPLRRYDVAHALLSGELPQDLALEKTPVRLKEGVAVFLEVARGKEGFYVLTHVEEEDLTQDLLLEVRKSARGVYAGVSRFGSPLITEAVKGAVRALVDRLEAHGLEVVQDHT	soluble
MLWTENITLRFGGVTALDNVSVEVRRGEILGIIGPNGAGKTSLLNVITGVYKPQRGRVYFKGRDITGLKPHQRITLGLSRTFQHSELFHSMTVLENIMVRLHPWTRGSILEKALWAFRAKRWEVEARERAEHVIDLLDLHEHRHSPIGALPPGIQKKVDLAGALAQNPEVVLMDEPMAGLSKEEKEDIVRAIIETSETMHTTMVLIEHDMEVVTDVCDRVVVMDYGKVIFEGPPHEAVADERVRKAYLGE	soluble
MLYIFTPTFNRGYRLSYLYDSLCNQTNKNFIWLIVDDGSEDSTKEIVSNYIKENKVSIVYLYKRNGGKHSAYNLAMRYMQPSDYHVCVDSDDWLLEDAVEIIFKDLESLTLSNRYVGLVYPRYSLNQGNNWLNPKILEVNIPDLKYKYHLKIETCIVINNAYLVDFEFPCFEGENFLSEEIMYIYLSKKGYFCPQNRKIYCFDYLEDGLTSNIFKLWRKNFKGTIFSLENSYMYVMSFPNIFDRWWSAIKIKMNIQALKMTTLGVIPTLKSEEAGWKILLGFSYLWKVARFKKSELEHHHHHH	soluble
MMAVENAVDYPISVRLPSYVVEKIDELVKKRKFRSRSDFIKFAVTFALGQIMMEEARERAKNEPEELEKERKEAWMRLRAGDFSKEDEETLELLKKVDARYKRLGGRS	soluble
MMEDGAEGEIGDMLSMCNKHPFFDDDDSERFVILYKICTVFDEPVEGKQPSSAVIVYEELAKSGGYCCRPSKMEESYVKVDQVVQEMAKITSKCAIHLSSHALKNTIQIVRTAFSGEYTQNDKDGNVPEGNEVKFDGDETVMKTTVNCEKLVEDINEFMEEDRQMYGALEIQIMEESERNIDGYAYFSFLKFVPCGNIHLRIPPLEGSCTKEVINEVIETIMRNFWNYCGDS	not soluble
